Data on 16 molecules can be found in publication PMC11331095, “Structural basis for DNA recognition by a viral genome-packaging machine”.

Usually stoichiometry N stands for the number of molecules, sites or subunits per partner or assembly. What is called Kd is the free concentration of one partner at which half of the binding sites on the other are occupied at equilibrium, for simple one-to-one binding.

The target of data set [1] is HK97 small terminase Arg114 to alanine mutant (Escherichia coli bacteriophage HK97). The data set is described as follows: SEC; mutant proteins on a Superdex S200 10/30 column in 25 mM Tris-HCl, pH 7.5, 1 M NaCl (SI Appendix, Fig. S12). On the technique in general: In gel filtration, larger molecules generally elute earlier.
The target in data set [2] is HK97 small terminase Arg5 to alanine mutant (Escherichia coli bacteriophage HK97). Described as above.
Data set [3] addresses HK97 small terminase Lys4 to alanine mutant (Escherichia coli bacteriophage HK97). The data set is described as above.
Data set [4] deals with HK97 small terminase triple mutant (Lys4, Arg5 and Arg7 to alanine) (Escherichia coli bacteriophage HK97). The description is as above.
Data set [5] concerns the target HK97 small terminase Lys100 to alanine mutant (Escherichia coli bacteriophage HK97). The data set is described as above.
The target in data set [6] is HK97 small terminase Arg7 to alanine mutant (Escherichia coli bacteriophage HK97). The description is as above.
In data set [7] the target is HK97 small terminase (Escherichia coli bacteriophage HK97). The data set is described as follows: cryo-EM structure; small terminase with 31 bp DNA (cos 7-37), 1:2 protein:DNA, 25 mM Tris-HCl pH 7.5, 200 mM NaCl, 10 mM MgCl2; complex purified on S200 10/30; 3.0 Å.
Data set [8] addresses HK97 small terminase Arg128 to alanine mutant (Escherichia coli bacteriophage HK97). Nature of the data set: SEC; mutant proteins on a Superdex S200 10/30 column in 25 mM Tris-HCl, pH 7.5, 1 M NaCl (SI Appendix, Fig. S12).
In data set [9] the target is HK97 small terminase Arg107 to alanine mutant (Escherichia coli bacteriophage HK97). The description is as above.
Data set [10] has as its target T1, small terminase WT (Escherichia coli bacteriophage HK97, UniProt Q9MBW4 1-161).
T1 sequence: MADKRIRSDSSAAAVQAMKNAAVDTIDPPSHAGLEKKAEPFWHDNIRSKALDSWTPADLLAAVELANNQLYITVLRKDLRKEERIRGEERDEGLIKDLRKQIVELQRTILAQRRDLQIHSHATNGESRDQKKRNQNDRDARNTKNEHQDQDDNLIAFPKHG
The data set is described as follows: MST. The note with it: rough upper limit of Kapp; mixed specific and nonspecific binding; 10 mM MgCl2; EMSA: 25 mM Tris-HCl pH 7.5, 200 mM NaCl, 10 mM MgCl2, RT 2-3 h, gel at 4 C (DNA 2 uM boundary mapping, 0.5 uM DNA mutants, 20 nM Alexa647 or 40 nM Cy5 DNA) …. (In general: In EMSA bound probe runs differently from free probe, usually more slowly.)

In data set [11] the target is T1, small terminase WT. The data set is described as follows: EMSA; EMSA: 25 mM Tris-HCl pH 7.5, 200 mM NaCl, 10 mM MgCl2, RT 2-3 h, gel at 4 C (DNA 2 uM boundary mapping, 0.5 uM DNA mutants, 20 nM Alexa647 or 40 nM Cy5 DNA); MST: same buffer + 0.005-0.01% Tween 20, 12 nM DNA, 20 C. The note with it: protein: recombinant; tags: His-SUMO tag removed; chain copies: 9.
For data set [12], the target named is T1, small terminase WT. Nature of the data set: cryoEM; 3.0 A; 28 of 31 bp modelled; DNA threaded through channel; EMSA: 25 mM Tris-HCl pH 7.5, 200 mM NaCl, 10 mM MgCl2, RT 2-3 h, gel at 4 C (DNA 2 uM boundary mapping, 0.5 uM DNA mutants, 20 nM Alexa647 or 40 nM Cy5 DNA); MST: same buffer + 0.005-0.01% Tween 20, 12 nM DNA, 20 C. The note with it: protein: recombinant; tags: His-SUMO tag removed; chain copies: 9.

Data set [13] deals with T1, small terminase WT. Nature of the data set: EMSA; up to 1 uM protein; EMSA: 25 mM Tris-HCl pH 7.5, 200 mM NaCl, 10 mM MgCl2, RT 2-3 h, gel at 4 C (DNA 2 uM boundary mapping, 0.5 uM DNA mutants, 20 nM Alexa647 or 40 nM Cy5 DNA); MST: same buffer + 0.005-0.01% Tween 20, 12 nM DNA, 20 C. Particulars: protein: recombinant; tags: His-SUMO tag removed; chain copies: 9.
The target of data set [14] is T1, small terminase WT. Nature of the data set: EMSA; binding abolished; up to 1 uM protein; EMSA: 25 mM Tris-HCl pH 7.5, 200 mM NaCl, 10 mM MgCl2, RT 2-3 h, gel at 4 C (DNA 2 uM boundary mapping, 0.5 uM DNA mutants, 20 nM Alexa647 or 40 nM Cy5 DNA); MST: same buffer + 0.005-0.01% Tween 20, 12 nM DNA, 20 C. Particulars: protein: recombinant; tags: His-SUMO tag removed; chain copies: 9.

Data set [15] deals with T1, small terminase WT. The data set is described as follows: EMSA; little influence on binding; EMSA: 25 mM Tris-HCl pH 7.5, 200 mM NaCl, 10 mM MgCl2, RT 2-3 h, gel at 4 C (DNA 2 uM boundary mapping, 0.5 uM DNA mutants, 20 nM Alexa647 or 40 nM Cy5 DNA); MST: same buffer + 0.005-0.01% Tween 20, 12 nM DNA, 20 C. Particulars: protein: recombinant; tags: His-SUMO tag removed; chain copies: 9.

Turning to “HK97 small terminase Arg114 to alanine mutant (natural protein)”, the stoichiometry N in data set [1] was 9.

“HK97 small terminase Arg5 to alanine mutant (natural protein)” came in with a stoichiometry N in data set [2] of 9.

Regarding “HK97 small terminase Lys4 to alanine mutant (natural protein)”, the stoichiometry N in [3] was 9.

“HK97 small terminase triple mutant (Lys4, Arg5 and Arg7 to alanine) (natural protein)” registered a stoichiometry N in data set [4] of 9.

“HK97 small terminase Lys100 to alanine mutant (natural protein)”: the stoichiometry N in [5] is 9.

In the case of “HK97 small terminase Arg7 to alanine mutant (natural protein)”, in [6], the stoichiometry N worked out at 9.

The molecule HK97 small terminase had a stoichiometry N in [7] of 9.

With “HK97 small terminase Arg128 to alanine mutant (natural protein)”, the stoichiometry N in data set [8] was 9.

Turning to “HK97 small terminase Arg107 to alanine mutant (natural protein)”, the stoichiometry N in [9] turned out to be 9.

On to cos -20-80 (100 bp), for which, in the data set with small terminase WT [10], the Kd is below 100 nM.

B1: 21 bp cos oligo (dsDNA)
DNA 1: ACGCTAACCCGATTTTTTTAG
DNA 2: CTAAAAAAATCGGGTTAGCGT
Regarding B1, the binding result in the data set with small terminase WT [11] is “binds”.

B2: cos 7-37 (31 bp) (dsDNA)
DNA 1: ATTTAACGCTAACCCGATTTTTTTAGTTTTA
DNA 2: TAAAACTAAAAAAATCGGGTTAGCGTTAAAT
On to B2, for which, in the data set with small terminase WT [12], the binding result is “binds”.

B3: position 21 C:G to T:A (dsDNA)
DNA 1: ATTTAACGCTAACCTGATTTTTTTAGTTTTA
DNA 2: TAAAACTAAAAAAATCAGGTTAGCGTTAAAT
In the case of B3, the binding result with small terminase WT [13] is listed as “no binding”.

B4: positions 26-27 G:C (dsDNA)
DNA 1: ATTTAACGCTAACCCGATTCCTTTAGTTTTA
DNA 2: TAAAACTAAAGGAATCGGGTTAGCGTTAAAT
Take B4: the binding result with small terminase WT [14] was “no binding”.

B5: positions 24-29 A:T swapped (dsDNA)
DNA 1: ATTTAACGCTAACCCGAAAAAAATAGTTTTA
DNA 2: TAAAACTATTTTTTTCGGGTTAGCGTTAAAT
In the case of B5, the binding result with small terminase WT [15] was “binds”.

B6: 25 bp cos oligo (dsDNA)
DNA 1: TAACGCTAACCCGATTTTTTTAGTT
DNA 2: AACTAAAAAAATCGGGTTAGCGTTA
For B6, the binding result with small terminase WT [11] was “binds”.
